Experimental data published in article PMC6547681, “Structures of BCL-2 in complex with venetoclax reveal the molecular basis of resistance mutations” (Nature Communications, 2019).

Key:
[1] = biological target: BAXBH3 peptide; assay: SPR; direct binding; biotinylated BIMBH3 or BAXBH3 peptide immobilised on SA sensor chip, BCL-2 (0-63 nM) as analyte; HBS-EP (10 mM hepes pH 7.4, 150 mM sodium chloride, 3.4 mM EDTA, 0.005% tween 20, optionally 1 mM TCEP for BAXBH3), 25 °C; BIAcore 4000 or S200; 1:1 binding site kinetic model; BIMBH3-4A reference surface
[2] = biological target: BIMBH3 peptide; assay: as above
[3] = biological target: venetoclax; assay: steady-state competition SPR; settings: BIMBH3 peptide immobilised on chip; BCL-2 analyte pre-combined with venetoclax at 0, 20, 40, 60 nM
[4] = biological target: S55746; assay: steady-state competition SPR; settings: BIMBH3 peptide immobilised on chip; BCL-2 analyte pre-combined with S55746 at 0, 20, 40, 60 nM

BIMBH3 peptide, sequence (O43521 141-166): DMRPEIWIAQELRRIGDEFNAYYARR
BAXBH3 peptide, sequence (Q07812 other isoform, or with tags, fused parts or gaps): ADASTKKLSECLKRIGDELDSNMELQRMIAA

| Kd [1] | Kd [2] | Ki [3] | Ki [4] | Substance |
| --- | --- | --- | --- | --- |
| 4 nM | 0.17 nM |  |  | BCL-2 F104C (from UniProt P10415 1-239) (natural protein) |
|  |  | 25.1 nM |  | BCL-2 WT (from UniProt P10415) F104C |
|  |  |  | 36 nM | BCL-2 WT (from UniProt P10415) G101V |
|  |  | 0.027 nM |  | BCL-2 WT (from UniProt P10415) E152A |
| 3.6 nM | 0.36 nM |  |  | BCL-2 E152A (from UniProt P10415 1-239) (natural protein) |
|  | 0.23 nM |  |  | BCL-2 G101A (from UniProt P10415 1-239) (natural protein) |
|  |  | 0.002 nM | 5.3 nM | BCL-2 WT (from UniProt P10415) G101V; E152A |
|  |  | 0.11 nM |  | BCL-2 WT (from UniProt P10415) G101A |
| 5.5 nM | 0.63 nM |  |  | BCL-2 G101V/E152A double mutant (from UniProt P10415 1-239) (natural protein) |
